In assay [1] the target is human p53 protein, full length (human) (UniProt P04637). Description: cell-based or functional assay.
The target of assay [2] is lexA-p53 (p53 codons 1-73) fusion (human). Description: cell-based or functional assay.

Our source for the inhibition of p53-mediated transactivation of a p53-responsive β-galactosidase reporter in yeast and decrease in lexA-responsive β-galactosidase reporter activity in yeast values is patent publication US7402570.

human p53 protein, full length (human), sequence (P04637 whole entry, the tested form may be a part): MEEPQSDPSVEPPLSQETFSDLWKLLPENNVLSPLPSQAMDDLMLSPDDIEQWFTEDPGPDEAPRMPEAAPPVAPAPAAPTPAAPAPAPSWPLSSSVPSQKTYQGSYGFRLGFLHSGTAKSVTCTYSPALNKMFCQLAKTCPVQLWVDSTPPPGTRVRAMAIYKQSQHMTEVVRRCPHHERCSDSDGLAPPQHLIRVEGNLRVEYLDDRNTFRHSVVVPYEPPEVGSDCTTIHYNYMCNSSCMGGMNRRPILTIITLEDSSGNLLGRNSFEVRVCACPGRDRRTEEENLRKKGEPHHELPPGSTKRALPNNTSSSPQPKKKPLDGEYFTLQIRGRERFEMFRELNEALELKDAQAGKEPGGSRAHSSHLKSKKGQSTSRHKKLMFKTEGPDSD

As to human MDM2 protein (hMDM2), full length, the inhibition of p53-mediated transactivation of a p53-responsive β-galactosidase reporter in yeast in assay [1] is 16 fold. In assay [2], this substance returned a decrease in lexA-responsive β-galactosidase reporter activity in yeast of 5 fold.
